This note sets out measurements from patent US20040058368A1 (PENN STATE RESEARCH FOUNDATION, published 2004).

The labels stand for the following.
T1: Gal80-TBP (Saccharomyces cerevisiae (yeast), UniProt P04387 1-435; P13393 1-240, limits assumed)
T1 construct: The junction and any tags are not described
T1 sequence (looked up): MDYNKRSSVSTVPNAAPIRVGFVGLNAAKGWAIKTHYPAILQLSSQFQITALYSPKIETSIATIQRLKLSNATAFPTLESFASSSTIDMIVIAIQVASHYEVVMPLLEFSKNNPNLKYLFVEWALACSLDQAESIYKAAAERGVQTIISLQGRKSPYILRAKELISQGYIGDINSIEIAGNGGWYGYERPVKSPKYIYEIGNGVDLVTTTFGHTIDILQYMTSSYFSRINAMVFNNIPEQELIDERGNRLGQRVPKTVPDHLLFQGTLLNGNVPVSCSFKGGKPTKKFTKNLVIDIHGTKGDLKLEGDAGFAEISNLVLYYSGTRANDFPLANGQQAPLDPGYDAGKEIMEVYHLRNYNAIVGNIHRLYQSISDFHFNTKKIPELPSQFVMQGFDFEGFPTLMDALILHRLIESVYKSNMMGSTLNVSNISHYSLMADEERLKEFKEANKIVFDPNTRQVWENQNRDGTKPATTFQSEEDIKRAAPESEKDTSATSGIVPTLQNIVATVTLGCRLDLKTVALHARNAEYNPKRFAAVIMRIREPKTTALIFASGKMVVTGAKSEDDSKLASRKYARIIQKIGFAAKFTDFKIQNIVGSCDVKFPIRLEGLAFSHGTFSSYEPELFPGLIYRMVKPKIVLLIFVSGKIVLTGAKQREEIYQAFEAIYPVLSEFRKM

T2: wild type Gal3p (Saccharomyces cerevisiae (yeast), UniProt P13045 1-520)
T2 sequence (looked up): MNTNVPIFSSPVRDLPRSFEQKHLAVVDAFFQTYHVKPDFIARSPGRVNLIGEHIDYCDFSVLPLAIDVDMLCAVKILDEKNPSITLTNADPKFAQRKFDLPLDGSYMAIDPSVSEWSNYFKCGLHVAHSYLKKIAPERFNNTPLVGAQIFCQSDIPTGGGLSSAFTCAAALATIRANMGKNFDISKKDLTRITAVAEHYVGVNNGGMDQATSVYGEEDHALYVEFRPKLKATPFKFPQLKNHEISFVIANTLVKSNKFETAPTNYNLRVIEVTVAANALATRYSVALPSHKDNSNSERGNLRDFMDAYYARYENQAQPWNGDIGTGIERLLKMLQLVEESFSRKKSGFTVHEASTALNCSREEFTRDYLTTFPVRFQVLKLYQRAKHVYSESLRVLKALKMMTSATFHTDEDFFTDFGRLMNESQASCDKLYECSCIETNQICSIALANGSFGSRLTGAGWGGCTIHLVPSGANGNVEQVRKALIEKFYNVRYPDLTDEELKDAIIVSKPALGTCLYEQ

B1: Membrane targeted transcriptional activation domain of Gal4p (Myr-Gal4AD) (other, Saccharomyces cerevisiae (yeast))
chain: MGCTVSTQTIGDESDPPLTPSALFGGANFNQSGNIADSSLSFTFTNSSNGPNLITTQTNSQALSQPIASSNVHDNFMNNEITASKIDDGNNSKPLSPGWTDQTAYNAFGITTGMFNTTTMDDVYNYLFDDEDTPPNPKKE
modifications: N-myristoylation signal at the N terminus
notes: range 758-881; also called membrane-localized Gal4AD
B2: Gal80p (other, Saccharomyces cerevisiae (yeast), UniProt P04387 1-435, looked up)
chain: MDYNKRSSVSTVPNAAPIRVGFVGLNAAKGWAIKTHYPAILQLSSQFQITALYSPKIETSIATIQRLKLSNATAFPTLESFASSSTIDMIVIAIQVASHYEVVMPLLEFSKNNPNLKYLFVEWALACSLDQAESIYKAAAERGVQTIISLQGRKSPYILRAKELISQGYIGDINSIEIAGNGGWYGYERPVKSPKYIYEIGNGVDLVTTTFGHTIDILQYMTSSYFSRINAMVFNNIPEQELIDERGNRLGQRVPKTVPDHLLFQGTLLNGNVPVSCSFKGGKPTKKFTKNLVIDIHGTKGDLKLEGDAGFAEISNLVLYYSGTRANDFPLANGQQAPLDPGYDAGKEIMEVYHLRNYNAIVGNIHRLYQSISDFHFNTKKIPELPSQFVMQGFDFEGFPTLMDALILHRLIESVYKSNMMGSTLNVSNISHYSL
notes: Endogenous yeast protein, inside the cells; also called Gal80 protein

Experiment [1] concerns the target T1, Gal80-TBP. The experiment in a line: 80-Trap HIS3 reporter growth assay in yeast. An excerpt: FIG. 5. (Yeast cells) A membrane-targeted transcription factor activates GAL gene expression through interaction with Gal80-TBP. Galactose-independent HIS3 reporter (expression as a result of Gal80-TBP and Myr-TAF145 interaction; lane 1). Lane 2 illustrates the positive control: interaction between two proteins known to interact: Fpr1 (in fusion with Gal80) and Hom3 (fused to the Myr sequence and CFP). Lane 3 is the negative control with Gal80-TBP tested against just the Myr sequence. The nutrient agar plate used here contained 3% glycerol/2% lactic acid as carbon source and lacked histidine, tryptophan and uracil.

Experiment [2] concerns the target B2. The experiment in a line: UASGAL-HIS3 reporter growth assay in yeast without galactose. The source says:
FIG. 6. (Yeast cells) Membrane targeted transcriptional activation domain of Gal4p (Gal4AD; amino acid 758-881) activates HIS3 reporter gene expression. A yeast strain harboring a UASGAL-HIS3 reporter was transformed with Myr-Gal4AD. […] Transformed cells were spotted on synthetic medium plates lacking histidine, tryptophan and uracil and containing 3% glycerol/2% lactic acid as carbon source.

Experiment [3] deals with T2, wild type Gal3p. The experiment in a line: cell-based or functional assay.
The target in experiment [4] is T3, Gal4p (Saccharomyces cerevisiae (yeast), UniProt P04386 1-881).
T3 construct: Endogenous protein of wild type Sc723 cells, cross-linked in vivo
The experiment in a line: formaldehyde cross-linking and chromatin immunoprecipitation in yeast, un-induced against galactose-induced. On the procedure:
Fold enrichments are indicated (enrichment). […] FIG. 3C illustrates quantitation of promoter occupancy by Gal4p, Gal80p and Gal3p in un-induced and induced cells. Values are means (±standard deviation) of at least five experiments carried out with two sets of independently prepared chromatin samples.
Chromatin immunoprecipitations were performed as described by Braunstein et al., 1993, Genes Dev. 7: 592-604 and Kuras et al. 1999, Nature 399: 609-613. Briefly, wild type Sc723 cells (Blank et al., 1997, Mol. Cell. Biol. 17: 2566-2575) were grown to early exponential growth phase (as measured by absorbance at 600 nm˜0.4) in 250 mL yeast extract-peptone medium containing 2% glycerol, 3% lactic acid, and 0.05% glucose (-galactose, un-induced). For galactose-induced cultures, galactose was added to the un-induced cultures to a final concentration of 2% and the cultures were incubated for an additional 20 minutes. Formaldehyde was added to a final concentration of 1%, the cultures were incubated for 20 minutes at room temperature, and glycine was added to a final concentration of 300 mM. All the following steps were carried out at […]. Cells were washed twice with TBS (20 mM Tris-HCl, 150 mM NaCl, pH 8.0), resuspended in 1 mL lysis buffer (50 mM Tris-HCl pH 8.0, 10 mM EDTA, 1% SDS, 1 mM PMSF), and disrupted by vortexing with glass beads. […]

As for MGCTVSTQTIGDESDP (N-myristoylation signal) [Myr sequence], the binding result in experiment [1] was “no binding”.
With B1, the binding result in experiment [2] is “binds”.
As to B2, the “MEL1 gene expression level” value in experiment [3] came to 2 fold reduction. Besides, the binding result in experiment [4] is reported as “binds”.
